Experimental data reported in publication PMC314469, “Protein Interaction Networks by Proteome Peptide Scanning” (PLoS Biology, 2004).

How the values were obtained:
[1] = biological target: endophilin SH3 (SH3G2_HUMAN), Q99962; experiment: SPOT array
[2] = biological target: T1, amphyphisin SH3 (AMPH_HUMAN), P49418; experiment: SPOT array
T1 chain: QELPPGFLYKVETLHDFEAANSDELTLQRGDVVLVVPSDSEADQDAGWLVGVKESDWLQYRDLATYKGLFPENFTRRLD

In the case of DPPGPPRPPKEPGP [Q9NR59 1285-1299], the normalised SPOT signal, Boehringer light units (BLU); mean over the file's lines of this peptide [1] is reported as 468 and the normalised SPOT signal, Boehringer light units (BLU); mean over the file's lines of this peptide [2] is reported as 73.4.

Work on DPQAPRRPPSSFLL [Q8WW32 89-102] yielded a normalised SPOT signal, Boehringer light units (BLU); mean over the file's lines of this peptide [1] of 1200 and a normalised SPOT signal, Boehringer light units (BLU); mean over the file's lines of this peptide [2] of 108.

DPRRPKRPRTILTT [O60663 192-205] gave a normalised SPOT signal, Boehringer light units (BLU); mean over the file's lines of this peptide [1] of 948 and a normalised SPOT signal, Boehringer light units (BLU); mean over the file's lines of this peptide [2] of 183.

In the case of AEGPPKRPGGSSPL [P48634 1665-1678], the normalised SPOT signal, Boehringer light units (BLU); mean over the file's lines of this peptide [1] is reported as 291 and the normalised SPOT signal, Boehringer light units (BLU); mean over the file's lines of this peptide [2] is reported as 50.3.

DPRTPRRPRSARAG [Q9H901 24-37] showed a normalised SPOT signal, Boehringer light units (BLU); mean over the file's lines of this peptide [1] of 203 and a normalised SPOT signal, Boehringer light units (BLU); mean over the file's lines of this peptide [2] of 59.5.

With DPSGLPRPQKIPIS [Q9H591 280-293] the normalised SPOT signal, Boehringer light units (BLU); mean over the file's lines of this peptide [1] was 112 and the normalised SPOT signal, Boehringer light units (BLU); mean over the file's lines of this peptide [2] was 149.

With DPSPPRRPQHNSSG [Q96LS7 199-212] the normalised SPOT signal, Boehringer light units (BLU); mean over the file's lines of this peptide [1] was 238 and the normalised SPOT signal, Boehringer light units (BLU); mean over the file's lines of this peptide [2] was 45.

DQIPPNKPPWFDQP [O00302 379-393] gave a normalised SPOT signal, Boehringer light units (BLU); mean over the file's lines of this peptide [1] of 46.9 and a normalised SPOT signal, Boehringer light units (BLU); mean over the file's lines of this peptide [2] of 43.4.

Work on DRFPLKRPRYEDSD [O94913 808-821] yielded a normalised SPOT signal, Boehringer light units (BLU); mean over the file's lines of this peptide [1] of 144 and a normalised SPOT signal, Boehringer light units (BLU); mean over the file's lines of this peptide [2] of 129.

Binder DRPIIDRPIRGRGG [Q9Y367 154-167] has a normalised SPOT signal, Boehringer light units (BLU); mean over the file's lines of this peptide [1] of 192 and a normalised SPOT signal, Boehringer light units (BLU); mean over the file's lines of this peptide [2] of 325.

DRPKPPRPPTGRPS [P51512 320-334] was tested, and the normalised SPOT signal, Boehringer light units (BLU); mean over the file's lines of this peptide [1] was 7650 and the normalised SPOT signal, Boehringer light units (BLU); mean over the file's lines of this peptide [2] was 574.

DRWDPTRPPRATDT [O95180 738-751] gave a normalised SPOT signal, Boehringer light units (BLU); mean over the file's lines of this peptide [1] of 62.2 and a normalised SPOT signal, Boehringer light units (BLU); mean over the file's lines of this peptide [2] of 360.

With DSGQPRRPGQSPLS [O75111 1249-1262] the normalised SPOT signal, Boehringer light units (BLU); mean over the file's lines of this peptide [1] was 80.5 and the normalised SPOT signal, Boehringer light units (BLU); mean over the file's lines of this peptide [2] was 20.2.

Work on DSPLPRRPAFSGTS [Q9HBB0 94-107] yielded a normalised SPOT signal, Boehringer light units (BLU); mean over the file's lines of this peptide [1] of 971 and a normalised SPOT signal, Boehringer light units (BLU); mean over the file's lines of this peptide [2] of 11.5.

Binder AEILPRRPPTPEAQ [Q9BTK6 128-142] has a normalised SPOT signal, Boehringer light units (BLU); mean over the file's lines of this peptide [1] of 32.7 and a normalised SPOT signal, Boehringer light units (BLU); mean over the file's lines of this peptide [2] of 57.4.

DSPSFSRPSKYSPG [O14905 71-84] showed a normalised SPOT signal, Boehringer light units (BLU); mean over the file's lines of this peptide [1] of 57.1 and a normalised SPOT signal, Boehringer light units (BLU); mean over the file's lines of this peptide [2] of 30.7.

With DTALLPRPERRSSL [Q9Y2E3 518-531] the normalised SPOT signal, Boehringer light units (BLU); mean over the file's lines of this peptide [1] was 65.4 and the normalised SPOT signal, Boehringer light units (BLU); mean over the file's lines of this peptide [2] was 112.

For DTKALRRPKSAELH [P07949 469-482], the normalised SPOT signal, Boehringer light units (BLU); mean over the file's lines of this peptide [1] was 63 and the normalised SPOT signal, Boehringer light units (BLU); mean over the file's lines of this peptide [2] was 25.9.

Binder DTLNIRRPLVKMVY [Q9P0U0 373-386] has a normalised SPOT signal, Boehringer light units (BLU); mean over the file's lines of this peptide [1] of 60.9 and a normalised SPOT signal, Boehringer light units (BLU); mean over the file's lines of this peptide [2] of 24.3.

For DTPPPSRPEKKKAD [P12111 1626-1639], the normalised SPOT signal, Boehringer light units (BLU); mean over the file's lines of this peptide [1] was 101 and the normalised SPOT signal, Boehringer light units (BLU); mean over the file's lines of this peptide [2] was 78.7.

DTTSPSRPPGGPII [Q9Y2E5 978-992] showed a normalised SPOT signal, Boehringer light units (BLU); mean over the file's lines of this peptide [1] of 72.7 and a normalised SPOT signal, Boehringer light units (BLU); mean over the file's lines of this peptide [2] of 36.5.

With DTYRPKRPTTLNLF [Q9UQF2 154-167] the normalised SPOT signal, Boehringer light units (BLU); mean over the file's lines of this peptide [1] was 1540 and the normalised SPOT signal, Boehringer light units (BLU); mean over the file's lines of this peptide [2] was 75.1.

DVIIPAKPPVSFFS [Q96K45 88-102] was tested, and the normalised SPOT signal, Boehringer light units (BLU); mean over the file's lines of this peptide [1] was 53.1 and the normalised SPOT signal, Boehringer light units (BLU); mean over the file's lines of this peptide [2] was 15.7.

In the case of DVLSPLRPSRRHFP [Q12756 1091-1104], the normalised SPOT signal, Boehringer light units (BLU); mean over the file's lines of this peptide [1] is reported as 2630 and the normalised SPOT signal, Boehringer light units (BLU); mean over the file's lines of this peptide [2] is reported as 9010.

DVPAFVRPARVEPT [Q9C0A3 802-815] showed a normalised SPOT signal, Boehringer light units (BLU); mean over the file's lines of this peptide [1] of 72.7 and a normalised SPOT signal, Boehringer light units (BLU); mean over the file's lines of this peptide [2] of 4540.

In the case of AEMTFRRPAQAFPV [P07949 672-685], the normalised SPOT signal, Boehringer light units (BLU); mean over the file's lines of this peptide [1] is reported as 116 and the normalised SPOT signal, Boehringer light units (BLU); mean over the file's lines of this peptide [2] is reported as 26.9.

For DVTDPKRPLSFGVT [Q9P2C6 232-245], the normalised SPOT signal, Boehringer light units (BLU); mean over the file's lines of this peptide [1] was 37.5 and the normalised SPOT signal, Boehringer light units (BLU); mean over the file's lines of this peptide [2] was 1.7.

In the case of DVVPPIKPPKEIED [O14967 255-269], the normalised SPOT signal, Boehringer light units (BLU); mean over the file's lines of this peptide [1] is reported as 54.5 and the normalised SPOT signal, Boehringer light units (BLU); mean over the file's lines of this peptide [2] is reported as 43.9.

With EADSIPRPYRSQQS [O15015 40-53] the normalised SPOT signal, Boehringer light units (BLU); mean over the file's lines of this peptide [1] was 0 and the normalised SPOT signal, Boehringer light units (BLU); mean over the file's lines of this peptide [2] was 10.4.

Binder EAGSPRRPRRQRSD [Q15015 1069-1082] has a normalised SPOT signal, Boehringer light units (BLU); mean over the file's lines of this peptide [1] of 377 and a normalised SPOT signal, Boehringer light units (BLU); mean over the file's lines of this peptide [2] of 8310.

EALEIPRPLRALDQ [Q9HCK4 1228-1241] gave a normalised SPOT signal, Boehringer light units (BLU); mean over the file's lines of this peptide [1] of 0 and a normalised SPOT signal, Boehringer light units (BLU); mean over the file's lines of this peptide [2] of 0.

With EALKLRRPPDASGA [P24530 73-86] the normalised SPOT signal, Boehringer light units (BLU); mean over the file's lines of this peptide [1] was 42.8 and the normalised SPOT signal, Boehringer light units (BLU); mean over the file's lines of this peptide [2] was 35.9.

With EAQFFLRPLRSYGD [P78357 768-781] the normalised SPOT signal, Boehringer light units (BLU); mean over the file's lines of this peptide [1] was 104 and the normalised SPOT signal, Boehringer light units (BLU); mean over the file's lines of this peptide [2] was 3170.

Work on EARKPAKPPVSPKP [Q8WXD9 1216-1230] yielded a normalised SPOT signal, Boehringer light units (BLU); mean over the file's lines of this peptide [1] of 1650 and a normalised SPOT signal, Boehringer light units (BLU); mean over the file's lines of this peptide [2] of 53.6.

EASGPERPPALLQE [Q03431 573-587] showed a normalised SPOT signal, Boehringer light units (BLU); mean over the file's lines of this peptide [1] of 62.6 and a normalised SPOT signal, Boehringer light units (BLU); mean over the file's lines of this peptide [2] of 52.1.

For AERPPSKPPPVELR [Q14203 913-927], the normalised SPOT signal, Boehringer light units (BLU); mean over the file's lines of this peptide [1] was 67.4 and the normalised SPOT signal, Boehringer light units (BLU); mean over the file's lines of this peptide [2] was 70.7.

Binder EASIFRRPYYVSHF [O15360 570-583] has a normalised SPOT signal, Boehringer light units (BLU); mean over the file's lines of this peptide [1] of 211 and a normalised SPOT signal, Boehringer light units (BLU); mean over the file's lines of this peptide [2] of 59.

Work on EASSPARPSKHSVG [Q92932 121-134] yielded a normalised SPOT signal, Boehringer light units (BLU); mean over the file's lines of this peptide [1] of 211 and a normalised SPOT signal, Boehringer light units (BLU); mean over the file's lines of this peptide [2] of 231.

Binder EDAKLRRPMVIEII [Q9NZ29 33-46] has a normalised SPOT signal, Boehringer light units (BLU); mean over the file's lines of this peptide [1] of 74.7 and a normalised SPOT signal, Boehringer light units (BLU); mean over the file's lines of this peptide [2] of 34.7.

Binder EDALPTRPKKRARS [Q9UPW0 160-173] has a normalised SPOT signal, Boehringer light units (BLU); mean over the file's lines of this peptide [1] of 291 and a normalised SPOT signal, Boehringer light units (BLU); mean over the file's lines of this peptide [2] of 672.

For EDEEPKRPLPRKQS [Q9BZ71 330-343], the normalised SPOT signal, Boehringer light units (BLU); mean over the file's lines of this peptide [1] was 15.6 and the normalised SPOT signal, Boehringer light units (BLU); mean over the file's lines of this peptide [2] was 35.6.

With EDFVPFRPRRSPRM [Q14202 277-290] the normalised SPOT signal, Boehringer light units (BLU); mean over the file's lines of this peptide [1] was 2630 and the normalised SPOT signal, Boehringer light units (BLU); mean over the file's lines of this peptide [2] was 20100.
